The assay concerns the target His6-Tagged vimentin (Novus Biologicals) (UniProt P08670). In words: MST; His6-vimentin labelled with RED-tris-NTA 2nd Generation dye, kept at 20 nM; V-domain protein titrated from 40 uM to 0.117 uM; premium capillaries, Monolith NT.115 Pico, 20% excitation power; 'estimated' Kd.

This passage reports Kd results from article PMC8939794.

A word on the Kd: it is the equilibrium constant for the complex coming apart.

Sequence of UniProt P08670 (P08670 whole entry): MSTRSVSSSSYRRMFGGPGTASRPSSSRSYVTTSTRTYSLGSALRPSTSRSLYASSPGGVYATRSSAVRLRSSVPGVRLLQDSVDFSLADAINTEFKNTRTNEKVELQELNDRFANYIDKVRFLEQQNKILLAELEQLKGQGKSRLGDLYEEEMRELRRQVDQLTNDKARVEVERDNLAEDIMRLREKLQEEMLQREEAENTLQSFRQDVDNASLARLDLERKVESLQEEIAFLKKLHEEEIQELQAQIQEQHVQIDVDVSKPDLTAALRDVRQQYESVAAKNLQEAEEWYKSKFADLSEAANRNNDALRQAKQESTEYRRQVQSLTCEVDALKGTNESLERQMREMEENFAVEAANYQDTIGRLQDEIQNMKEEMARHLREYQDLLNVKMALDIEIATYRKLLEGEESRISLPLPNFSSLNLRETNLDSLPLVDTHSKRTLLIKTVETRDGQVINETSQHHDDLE

On to “BspC V-domain (variable domain of Group B streptococcal surface protein C, strain COH1) (domain or fragment)”, for which the equilibrium dissociation constant (Kd) is 7.14 µM.

For the substance “BspC Gating Loop Mutant (GLM) V-domain, A250P/A259P (domain or fragment)”, the Kd is 41.9 µM.
